{"source": "the supplement of paper PMC9112550", "about": "“Optimization of the antimicrobial peptide Bac7 by deep mutational scanning” (BMC Biology, 2022);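 also: peptides expressed intracellularly from a pBAD plasmid library in pooled LB shake-flask culture, induced with 0.3% L-arabinose, DNA abundance read by NGS, three biological replicates, DESeq2 with apeglm shrinkage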", "data": [{"test_system": "Escherichia coli TOP10", "experiment": "shrunken log2 fold change of peptide-encoding DNA abundance (4.5 h post-induction vs induction); higher = less antimicrobial activity (less host growth inhibition)", "conditions": "time post-induction: 4.5 h; library: site-saturation at positions 5, 18, 19, 20", "values": [{"sequence": "RRIRKRPPRLPRPRPRPAINPRP", "shrunken log2 fold change": 0.126}, {"sequence": "RRIRKRPPRLPRPRPRPALEPRP", "shrunken log2 fold change": -0.108}, {"sequence": "RRIRKRPPRLPRPRPRPALMPRP", "shrunken log2 fold change": 0.32}, {"sequence": "RRIRKRPPRLPRPRPRPANLPRP", "shrunken log2 fold change": 0.299}, {"sequence": "RRIRKRPPRLPRPRPRPANSPRP", "shrunken log2 fold change": -0.0423}, {"sequence": "RRIRKRPPRLPRPRPRPAPMPRP", "shrunken log2 fold change": 0.769}, {"sequence": "RRIRKRPPRLPRPRPRPASAPRP", "shrunken log2 fold change": 0.59}, {"sequence": "RRIRKRPPRLPRPRPRPASCPRP", "shrunken log2 fold change": 0.431}, {"sequence": "RRIRKRPPRLPRPRPRPATSPRP", "shrunken log2 fold change": 0.288}, {"sequence": "RRIRKRPPRLPRPRPRPATTPRP", "shrunken log2 fold change": 0.407}, {"sequence": "RRIRKRPPRLPRPRPRPAVKPRP", "shrunken log2 fold change": -0.104}, {"sequence": "RRIRKRPPRLPRPRPRPAVPPRP", "shrunken log2 fold change": 0.275}, {"sequence": "RRIRKRPPRLPRPRPRPAVWPRP", "shrunken log2 fold change": 0.563}, {"sequence": "RRIRKRPPRLPRPRPRPAWRPRP", "shrunken log2 fold change": 1.18}, {"sequence": "RRIRKRPPRLPRPRPRPAYLPRP", "shrunken log2 fold change": 0.105}, {"sequence": "RRIRKRPPRLPRPRPRPCAEPRP", "shrunken log2 fold change": 0.951}, {"sequence": "RRIRKRPPRLPRPRPRPCAGPRP", "shrunken log2 fold change": 0.257}, {"sequence": "RRIRKRPPRLPRPRPRPCCFPRP", "shrunken log2 fold change": 0.112}, {"sequence": "RRIRKRPPRLPRPRPRPCCKPRP", "shrunken log2 fold change": 0.099}, {"sequence": "RRIRKRPPRLPRPRPRPCCPPRP", "shrunken log2 fold change": -0.044}, {"sequence": "RRIRKRPPRLPRPRPRPCEDPRP", "shrunken log2 fold change": 0.563}, {"sequence": "RRIRKRPPRLPRPRPRPCFKPRP", "shrunken log2 fold change": 0.0163}, {"sequence": "RRIRKRPPRLPRPRPRPCFQPRP", "shrunken log2 fold change": -0.112}, {"sequence": "RRIRKRPPRLPRPRPRPCIAPRP", "shrunken log2 fold change": -0.0581}, {"sequence": "RRIRKRPPRLPRPRPRPCISPRP", "shrunken log2 fold change": 0.0183}, {"sequence": "RRIRKRPPRLPRPRPRPCIWPRP", "shrunken log2 fold change": 0.0573}, {"sequence": "RRIRKRPPRLPRPRPRPCLVPRP", "shrunken log2 fold change": 0.123}, {"sequence": "RRIRKRPPRLPRPRPRPCMCPRP", "shrunken log2 fold change": -0.0956}, {"sequence": "RRIRKRPPRLPRPRPRPCMVPRP", "shrunken log2 fold change": 0.309}, {"sequence": "RRIRKRPPRLPRPRPRPCNFPRP", "shrunken log2 fold change": -0.132}, {"sequence": "RRIRKRPPRLPRPRPRPCNTPRP", "shrunken log2 fold change": -0.113}, {"sequence": "RRIRKRPPRLPRPRPRPCNYPRP", "shrunken log2 fold change": -0.0312}, {"sequence": "RRIRKRPPRLPRPRPRPCPKPRP", "shrunken log2 fold change": 0.29}, {"sequence": "RRIRKRPPRLPRPRPRPCQTPRP", "shrunken log2 fold change": 0.233}, {"sequence": "RRIRKRPPRLPRPRPRPCRRPRP", "shrunken log2 fold change": 0.112}, {"sequence": "RRIRKRPPRLPRPRPRPCTRPRP", "shrunken log2 fold change": -0.103}, {"sequence": "RRIRKRPPRLPRPRPRPCVFPRP", "shrunken log2 fold change": 0.204}, {"sequence": "RRIRKRPPRLPRPRPRPCVHPRP", "shrunken log2 fold change": -0.266}, {"sequence": "RRIRKRPPRLPRPRPRPCWKPRP", "shrunken log2 fold change": 0.0714}, {"sequence": "RRIRKRPPRLPRPRPRPCYKPRP", "shrunken log2 fold change": 0.0747}, {"sequence": "RRIRKRPPRLPRPRPRPCYQPRP", "shrunken log2 fold change": -0.42}, {"sequence": "RRIRKRPPRLPRPRPRPCYYPRP", "shrunken log2 fold change": -0.48}, {"sequence": "RRIRKRPPRLPRPRPRPDAAPRP", "shrunken log2 fold change": 0.976}, {"sequence": "RRIRKRPPRLPRPRPRPDADPRP", "shrunken log2 fold change": 0.163}, {"sequence": "RRIRKRPPRLPRPRPRPDCIPRP", "shrunken log2 fold change": 0.75}, {"sequence": "RRIRKRPPRLPRPRPRPDCQPRP", "shrunken log2 fold change": 0.00443}, {"sequence": "RRIRKRPPRLPRPRPRPDDLPRP", "shrunken log2 fold change": 0.0928}, {"sequence": "RRIRKRPPRLPRPRPRPDHGPRP", "shrunken log2 fold change": 1.01}, {"sequence": "RRIRKRPPRLPRPRPRPDKKPRP", "shrunken log2 fold change": -0.117}, {"sequence": "RRIRKRPPRLPRPRPRPDLFPRP", "shrunken log2 fold change": 0.529}, {"sequence": "RRIRKRPPRLPRPRPRPDMPPRP", "shrunken log2 fold change": 0.122}, {"sequence": "RRIRKRPPRLPRPRPRPDNCPRP", "shrunken log2 fold change": -0.0122}, {"sequence": "RRIRKRPPRLPRPRPRPDNYPRP", "shrunken log2 fold change": -0.153}, {"sequence": "RRIRKRPPRLPRPRPRPDPLPRP", "shrunken log2 fold change": 0.282}, {"sequence": "RRIRKRPPRLPRPRPRPDQSPRP", "shrunken log2 fold change": 0.0875}, {"sequence": "RRIRKRPPRLPRPRPRPDRGPRP", "shrunken log2 fold change": 0.0561}, {"sequence": "RRIRKRPPRLPRPRPRPDRNPRP", "shrunken log2 fold change": 0.158}, {"sequence": "RRIRKRPPRLPRPRPRPDRRPRP", "shrunken log2 fold change": 0.18}, {"sequence": "RRIRKRPPRLPRPRPRPDSFPRP", "shrunken log2 fold change": -0.115}, {"sequence": "RRIRKRPPRLPRPRPRPDSHPRP", "shrunken log2 fold change": -0.427}, {"sequence": "RRIRKRPPRLPRPRPRPDWCPRP", "shrunken log2 fold change": 0.292}, {"sequence": "RRIRKRPPRLPRPRPRPDYDPRP", "shrunken log2 fold change": 0.143}, {"sequence": "RRIRKRPPRLPRPRPRPDYHPRP", "shrunken log2 fold change": -0.244}, {"sequence": "RRIRKRPPRLPRPRPRPDYYPRP", "shrunken log2 fold change": 0.0521}, {"sequence": "RRIRKRPPRLPRPRPRPEALPRP", "shrunken log2 fold change": 1.67}, {"sequence": "RRIRKRPPRLPRPRPRPEAQPRP", "shrunken log2 fold change": 0.29}, {"sequence": "RRIRKRPPRLPRPRPRPEFLPRP", "shrunken log2 fold change": -0.00158}, {"sequence": "RRIRKRPPRLPRPRPRPEGIPRP", "shrunken log2 fold change": -0.0332}, {"sequence": "RRIRKRPPRLPRPRPRPEGPPRP", "shrunken log2 fold change": 0.447}, {"sequence": "RRIRKRPPRLPRPRPRPEHFPRP", "shrunken log2 fold change": 0.0394}, {"sequence": "RRIRKRPPRLPRPRPRPEHRPRP", "shrunken log2 fold change": -0.0428}, {"sequence": "RRIRKRPPRLPRPRPRPELTPRP", "shrunken log2 fold change": 2.29}, {"sequence": "RRIRKRPPRLPRPRPRPEMAPRP", "shrunken log2 fold change": 1.73}, {"sequence": "RRIRKRPPRLPRPRPRPEMNPRP", "shrunken log2 fold change": 2.14}, {"sequence": "RRIRKRPPRLPRPRPRPEMVPRP", "shrunken log2 fold change": 0.422}, {"sequence": "RRIRKRPPRLPRPRPRPENEPRP", "shrunken log2 fold change": 0.918}, {"sequence": "RRIRKRPPRLPRPRPRPENVPRP", "shrunken log2 fold change": -0.00931}, {"sequence": "RRIRKRPPRLPRPRPRPEPFPRP", "shrunken log2 fold change": 0.0238}, {"sequence": "RRIRKRPPRLPRPRPRPEPGPRP", "shrunken log2 fold change": 0.608}, {"sequence": "RRIRKRPPRLPRPRPRPEPIPRP", "shrunken log2 fold change": -0.0204}, {"sequence": "RRIRKRPPRLPRPRPRPEQQPRP", "shrunken log2 fold change": 1.43}, {"sequence": "RRIRKRPPRLPRPRPRPEVFPRP", "shrunken log2 fold change": 0.403}, {"sequence": "RRIRKRPPRLPRPRPRPEVKPRP", "shrunken log2 fold change": 0.085}, {"sequence": "RRIRKRPPRLPRPRPRPEVSPRP", "shrunken log2 fold change": 0.219}, {"sequence": "RRIRKRPPRLPRPRPRPEWWPRP", "shrunken log2 fold change": 0.0708}, {"sequence": "RRIRKRPPRLPRPRPRPEYRPRP", "shrunken log2 fold change": 0.012}, {"sequence": "RRIRKRPPRLPRPRPRPFCHPRP", "shrunken log2 fold change": 0.00474}, {"sequence": "RRIRKRPPRLPRPRPRPFCRPRP", "shrunken log2 fold change": 0.558}, {"sequence": "RRIRKRPPRLPRPRPRPFEYPRP", "shrunken log2 fold change": -0.00133}, {"sequence": "RRIRKRPPRLPRPRPRPFHMPRP", "shrunken log2 fold change": -0.424}, {"sequence": "RRIRKRPPRLPRPRPRPFIAPRP", "shrunken log2 fold change": -0.0583}, {"sequence": "RRIRKRPPRLPRPRPRPFIDPRP", "shrunken log2 fold change": 0.0226}, {"sequence": "RRIRKRPPRLPRPRPRPFKLPRP", "shrunken log2 fold change": 0.0306}, {"sequence": "RRIRKRPPRLPRPRPRPFKVPRP", "shrunken log2 fold change": -0.0542}, {"sequence": "RRIRKRPPRLPRPRPRPFLNPRP", "shrunken log2 fold change": 0.00977}, {"sequence": "RRIRKRPPRLPRPRPRPFNPPRP", "shrunken log2 fold change": -0.0407}, {"sequence": "RRIRKRPPRLPRPRPRPFSFPRP", "shrunken log2 fold change": 0.0267}, {"sequence": "RRIRKRPPRLPRPRPRPFTQPRP", "shrunken log2 fold change": -0.332}, {"sequence": "RRIRKRPPRLPRPRPRPFVCPRP", "shrunken log2 fold change": 0.0717}, {"sequence": "RRIRKRPPRLPRPRPRPFWAPRP", "shrunken log2 fold change": 0.659}, {"sequence": "RRIRKRPPRLPRPRPRPFWCPRP", "shrunken log2 fold change": -0.0466}, {"sequence": "RRIRKRPPRLPRPRPRPFWHPRP", "shrunken log2 fold change": 0.00192}, {"sequence": "RRIRKRPPRLPRPRPRPFWTPRP", "shrunken log2 fold change": 0.0312}, {"sequence": "RRIRKRPPRLPRPRPRPFYDPRP", "shrunken log2 fold change": 0.0223}, {"sequence": "RRIRKRPPRLPRPRPRPFYMPRP", "shrunken log2 fold change": -0.117}, {"sequence": "RRIRKRPPRLPRPRPRPGACPRP", "shrunken log2 fold change": 0.237}, {"sequence": "RRIRKRPPRLPRPRPRPGALPRP", "shrunken log2 fold change": 0.656}, {"sequence": "RRIRKRPPRLPRPRPRPGCHPRP", "shrunken log2 fold change": 0.0456}, {"sequence": "RRIRKRPPRLPRPRPRPGCTPRP", "shrunken log2 fold change": 0.517}]}]}
